Measurements: the supplement of paper PMC12042874
± gives the uncertainty stated by the source.

Assay: amyloid nucleation score (Sup35N fusion, yeast selection) (log enrichment); library NNK3; higher = more nucleation; inactive = no reads after selection
In short: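 Psi-negative yeast expressed Sup35N fused to peptides of 20 random codons. They were induced 24 hours with 100 μM copper sulfate, grown 7 days at 30°C without adenine and uracil, and their plasmid inserts from input and output were Illumina-sequenced. The nucleation score is the DiMSum log enrichment of output over input reads, centred on the mode score of non-aggregating sequences. Sequences with under 100 input reads were excluded.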

Substance: NFFWFYWIWKSSGGYTGWLL
- amyloid nucleation score: inactive

Substance: LYLPGKIY
- amyloid nucleation score: inactive

Substance: GLRKMRGLTQ
- amyloid nucleation score: inactive

Substance: EMTMTWCMVVRLVWVTNGIL
- amyloid nucleation score: inactive

Substance: SVESECRDMFSFKGFCVCVK
- amyloid nucleation score: inactive

Substance: SGMLDWDWVSRVSIGVCKVW
- amyloid nucleation score: inactive

Substance: RKDVSCSPLLNCETVSVQ
- amyloid nucleation score: inactive

Substance: FNMWIWS
- amyloid nucleation score: inactive

Substance: SLPLCWAMAKGSISHRMERY
- amyloid nucleation score: inactive

Substance: GFYVRRGCLWGGYNHVFAIF
- amyloid nucleation score: inactive

Substance: SPQFELLDITKPCRT
- amyloid nucleation score: inactive

Substance: FCHRYEMYIELTYTEGA
- amyloid nucleation score: inactive

Substance: LVYCFAYRVVHSNCHLESC
- amyloid nucleation score: inactive

Substance: LMIVLKLP
- amyloid nucleation score: inactive

Substance: WGFRWNKCLNLAQPWLMALS
- amyloid nucleation score: inactive

Substance: STSYSSAL
- amyloid nucleation score: inactive

Substance: MSSACGWEEVIGCLEVMRIG
- amyloid nucleation score: inactive

Substance: PTAHYWSVRSRSIDPPACQW
- amyloid nucleation score: inactive

Substance: WTRESLQYTGNSYGALSTFF
- amyloid nucleation score: inactive

Substance: SKTVDNGKMRKDWLGRQPWK
- amyloid nucleation score: -0.362 ± 0.51

Substance: GSRLHRFPNVKLDALFIYRW
- amyloid nucleation score: inactive

Substance: DSYDLYIVD
- amyloid nucleation score: inactive

Substance: VPLPEGFHNRTSNCIFFINE
- amyloid nucleation score: 0.932 ± 0.12

Substance: GLSNRTFSMISSLVRDTKRS
- amyloid nucleation score: inactive

Substance: YSVNSTLLLYVSKYEFIPCV
- amyloid nucleation score: 0.169 ± 0.29

Substance: VGTDDVIICILSVKFPLIRP
- amyloid nucleation score: inactive

Substance: FTYTEMRLGIKFSTWRQ
- amyloid nucleation score: 1.03 ± 0.14

Substance: YEVNGFAQNRA
- amyloid nucleation score: -0.564 ± 1

Substance: YMDRFDK
- amyloid nucleation score: inactive

Substance: NGLRRSVLGLRL
- amyloid nucleation score: inactive

Substance: LQYLRDCEFCRYVCYCNWLY
- amyloid nucleation score: 0.443 ± 0.34

Substance: GNASMLWDNMSVVFLRGTLY
- amyloid nucleation score: 1.53 ± 0.074

Substance: NLHNVMRKFTQGFSGHKTKL
- amyloid nucleation score: inactive

Substance: LKWAV
- amyloid nucleation score: inactive

Substance: SSFYFCFMSCCYGLGFYLEI
- amyloid nucleation score: inactive

Substance: GELKFLVLNRFE
- amyloid nucleation score: inactive

Substance: NCKMWRYKVESNCPGMICRC
- amyloid nucleation score: inactive

Substance: VSVLMGAWDLMWMPGKS
- amyloid nucleation score: 1.08 ± 0.14

Substance: SDLFVSVFM
- amyloid nucleation score: inactive

Substance: LCVNCLPRSLIFDSSIWRVD
- amyloid nucleation score: 0.296 ± 0.87

Substance: FTLLIYCYYLYYRCFCYVVR
- amyloid nucleation score: inactive

Substance: EHLPSSHP
- amyloid nucleation score: inactive

Substance: RFKTF
- amyloid nucleation score: inactive

Substance: CPVRGPKVVIQCMMLSILTV
- amyloid nucleation score: inactive

Substance: DKWFMSVPIISTRICGGCLG
- amyloid nucleation score: inactive

Substance: SFLWGFCRTKETGGSFMFNR
- amyloid nucleation score: 0.264 ± 0.62

Substance: ISQQTFNFALSMCTSPASRI
- amyloid nucleation score: inactive

Substance: QVPYFYLSVFLFFSPCSINF
- amyloid nucleation score: 1.74 ± 0.063

Substance: TKCNRALHMEVIIQATAVAR
- amyloid nucleation score: inactive

Substance: SEDLRETWGSSA
- amyloid nucleation score: -0.377 ± 0.98

Substance: TNMYSDSVIYVMHYGIPGGP
- amyloid nucleation score: 1.63 ± 0.092

Substance: EFSKHFPCWHRNSVAYYEIR
- amyloid nucleation score: inactive

Substance: YRNCLLRDMSWVVDFIDIKT
- amyloid nucleation score: inactive

Substance: DTEVHQNRFRMFGACDRERK
- amyloid nucleation score: inactive

Substance: HVIKNFSADISIDDFFYLGM
- amyloid nucleation score: inactive

Substance: MVNTKTISYWPKDSQHLRV
- amyloid nucleation score: inactive

Substance: LANTSRTGIFMDSNTDSRN
- amyloid nucleation score: inactive

Substance: MGADGSLRALKRARS
- amyloid nucleation score: inactive

Substance: NGVVMVKSRNVPADKSNCDG
- amyloid nucleation score: inactive

Substance: FILSVSYIRVCGARC
- amyloid nucleation score: 0.097 ± 0.48

Substance: ADKRFI
- amyloid nucleation score: inactive

Substance: RISRNGCGCGILYVIIRN
- amyloid nucleation score: inactive

Substance: GCNACVTSTCIRVVCGNLKC
- amyloid nucleation score: 0.715 ± 0.3

Substance: YLRMLVDELKITHHH
- amyloid nucleation score: inactive

Substance: DRHLAINERARLVAWFYYDF
- amyloid nucleation score: inactive

Substance: SVAFSWGMWCDSLDYFGSVS
- amyloid nucleation score: inactive

Substance: LSGDLVCRKVFTRRCTSKWL
- amyloid nucleation score: inactive

Substance: RFNMSFYQSYITSHCLVR
- amyloid nucleation score: inactive

Substance: VLVIGMWKTFYNYMQILCQA
- amyloid nucleation score: inactive

Substance: GRMEGNRFIDRLLGLHTSSP
- amyloid nucleation score: inactive

Substance: YGIVYSCCIVSVIEDFKLLK
- amyloid nucleation score: 2.57 ± 0.082

Substance: VLYVTKGVIFRCGCYNVGED
- amyloid nucleation score: 1.7 ± 0.11

Substance: DWVGRYSVSMWILIGRGSLW
- amyloid nucleation score: inactive

Substance: LAVALIIRMSYLELGLLNPT
- amyloid nucleation score: inactive

Substance: KLTPRFICVMCTCLIRL
- amyloid nucleation score: inactive

Substance: WCGVFWLVVMAY
- amyloid nucleation score: inactive

Substance: VIMYHMKFDNEIWVMHLLRN
- amyloid nucleation score: inactive

Substance: CMYKTFHFDY
- amyloid nucleation score: inactive

Substance: AVRWQSGSTRFLSCWLWQKN
- amyloid nucleation score: inactive

Substance: KYICET
- amyloid nucleation score: inactive

Substance: DEAMEDFEWRRMGLV
- amyloid nucleation score: inactive

Substance: TLPKVMFVIQNYGFFSGFTL
- amyloid nucleation score: 1.32 ± 0.079

Substance: LYSAAVVNGGLCDRL
- amyloid nucleation score: inactive

Substance: SSSTVYISVLVINHIDGSIR
- amyloid nucleation score: 2.42 ± 0.051

Substance: LSSWTNLLIWSLNLCPVMFV
- amyloid nucleation score: inactive

Substance: QTSIPGFDTTTLRVPLAFFG
- amyloid nucleation score: inactive

Substance: ICHFTLM
- amyloid nucleation score: inactive

Substance: NFTRPLSWNYLR
- amyloid nucleation score: inactive

Substance: LGWSMFLFDFSFKVKSH
- amyloid nucleation score: inactive

Substance: HFKFLYDS
- amyloid nucleation score: inactive

Substance: LSCCSSGGGSTPVIAPTYYE
- amyloid nucleation score: inactive

Substance: SNDNGTHVSNYRALSSDREK
- amyloid nucleation score: inactive

Substance: KPVLVVVSNLIPWSYPE
- amyloid nucleation score: 2.25 ± 0.085

Substance: IMDGFWCIDTGCLTAHGMWM
- amyloid nucleation score: inactive

Substance: DVITIEYVCF
- amyloid nucleation score: inactive

Substance: INTKECYHSGS
- amyloid nucleation score: inactive

Substance: KICWYELNLDNSLVLLGRRY
- amyloid nucleation score: 1.78 ± 0.084

Substance: SSPRGCKSELPSGLGTYCRV
- amyloid nucleation score: inactive

Substance: MVLGMYKQ
- amyloid nucleation score: inactive

Substance: LAYVLKDYFNCYGVIVVISL
- amyloid nucleation score: inactive

Substance: SVSLLAFRDFALPDHTKHMT
- amyloid nucleation score: inactive

Substance: VWYDRSEGLARAHNLYSGSE
- amyloid nucleation score: inactive

Substance: RSRNAAVDFCLPSSPWSSSV
- amyloid nucleation score: inactive

Substance: MRCILTLFSTDIICVLSCKC
- amyloid nucleation score: inactive

Substance: RMIRNDFMITLEWGDSGGYH
- amyloid nucleation score: 1.28 ± 0.097

Substance: LMGGQMRDIVFHMQGF
- amyloid nucleation score: 1.45 ± 0.1

Substance: RICMRLVNMTLMCQISGVLG
- amyloid nucleation score: inactive

Substance: SVRSGLARVSRTGMG
- amyloid nucleation score: inactive

Substance: FMYLT
- amyloid nucleation score: inactive

Substance: FSRYDRDLKGSLSGRSYFSA
- amyloid nucleation score: inactive

Substance: CDFTRESYTDNTAASIPMLM
- amyloid nucleation score: inactive

Substance: NWLCDRVRCCWKLNNNDMKL
- amyloid nucleation score: -0.22 ± 0.88

Substance: SCYNYCRCVCPNVEASHTSL
- amyloid nucleation score: -0.664 ± 1.1

Substance: VMLCFTFSMLVLVGGQVCLY
- amyloid nucleation score: inactive

Substance: TYFMRPSNYHVLSLGAG
- amyloid nucleation score: inactive

Substance: RDYFAYNCMVWMGTIQLYPG
- amyloid nucleation score: 1.83 ± 0.056

Substance: CIVLTVKCSLA
- amyloid nucleation score: -0.669 ± 0.55

Substance: LSEWI
- amyloid nucleation score: inactive

Substance: NNGSP
- amyloid nucleation score: inactive

Substance: DKRDNMYICVCRYCHETWCI
- amyloid nucleation score: -0.397 ± 0.66

Substance: WGITA
- amyloid nucleation score: inactive

Substance: SEAIFMVVGVRYEMELRWM
- amyloid nucleation score: -0.55 ± 1.4

Substance: LIPFCAVHPLWEHHLSKSFF
- amyloid nucleation score: inactive

Substance: IRYPVRV
- amyloid nucleation score: inactive

Substance: RMFGNIDCFCIIIMKVSWSG
- amyloid nucleation score: inactive

Substance: NYDIASLFTTNKSFV
- amyloid nucleation score: inactive

Substance: NPVGT
- amyloid nucleation score: inactive

Substance: AGFAMYFGFVGYNFSFPWG
- amyloid nucleation score: 1.17 ± 0.19

Substance: PIPHML
- amyloid nucleation score: -0.592 ± 0.75

Substance: YAMYSYFFIVAWFFNRS
- amyloid nucleation score: 0.252 ± 0.39

Substance: ALWLPITVDWMLESGCGGCY
- amyloid nucleation score: inactive

Substance: FLVDVYSCVCSILLWV
- amyloid nucleation score: inactive

Substance: HYWYE
- amyloid nucleation score: inactive

Substance: THSPKISRFLDNSRMRQFFT
- amyloid nucleation score: inactive

Substance: SDEGRAIPSATPFWEYCLMW
- amyloid nucleation score: inactive

Substance: VILATAYLASNLYPVCSLIS
- amyloid nucleation score: inactive

Substance: CRRVDFGSLSRFMGSGFNVD
- amyloid nucleation score: inactive

Substance: MFITRVLR
- amyloid nucleation score: inactive

Substance: RQFVIFYYSLIGHVNSWLRP
- amyloid nucleation score: inactive

Substance: PNFLRTCLLTYRGRSY
- amyloid nucleation score: inactive

Substance: NNGSSRYMWSSYFLVGY
- amyloid nucleation score: inactive

Substance: LTYHWNVVQLTLGNCFSGWG
- amyloid nucleation score: 2.55 ± 0.059

Substance: VPKAYR
- amyloid nucleation score: inactive

Substance: EGRWTCPFGGWTESFGSLYW
- amyloid nucleation score: inactive

Substance: KPTIDIKCFCSWVYLKVLRG
- amyloid nucleation score: inactive

Substance: NHLLSSSGSNGMLKLIRFIG
- amyloid nucleation score: inactive

Substance: QICTQFRSG
- amyloid nucleation score: inactive

Substance: MFRLVSGTEGLRLREVWC
- amyloid nucleation score: -0.469 ± 1.1

Substance: PVEWP
- amyloid nucleation score: -0.114 ± 0.78

Substance: ARCVVAFIILGNYR
- amyloid nucleation score: 0.663 ± 0.21

Substance: YLRKVSYNMHCRNWSWGDWS
- amyloid nucleation score: inactive

Substance: SCYTMAFPVLWVHAQYCMNK
- amyloid nucleation score: inactive

Substance: GHKVVL
- amyloid nucleation score: inactive

Substance: YVLMGAYASVL
- amyloid nucleation score: inactive

Substance: RSSDVRQYTLMCNWSKHVVL
- amyloid nucleation score: 0.089 ± 0.54

Substance: VRTYNQCKSHVLDWLRNTYF
- amyloid nucleation score: -0.295 ± 0.96

Substance: SLNEHNAGGIVTLHWQSIES
- amyloid nucleation score: inactive

Substance: VLLPPGVE
- amyloid nucleation score: -0.23 ± 0.98

Substance: SIWKISTRMQTFFCRNM
- amyloid nucleation score: 1.46 ± 0.1

Substance: WLFLVN
- amyloid nucleation score: inactive
